Assay [1] has as its target T1, cynomolgus monkey PCSK9, V5- and 6xHis-tagged (cynomolgus monkey, UniProt A0A7N9D9N8 150-747).
T1 construct: also called cPCSK9-V5-6xHIS; CynoPCSK9
The experiment in a line: BIAcore SPR, antibody amine-coupled to CM5 chip, PCSK9 as analyte, pH 7.4. (In general: SPR reads the build-up and loss of mass on a sensor chip optically.)
Method: Briefly, the surface plasmon resonance experiments were performed using Biacore 2000 optical biosensors (Biacore, GE Healthcare, Piscataway, N.J.). […] The concentration of PCSK9 protein was varied at 2 fold intervals (the analyte) and was injected over the immobilized antibody surface (at a flow rate of 100 μl/min for 1.5 minutes).
Antibody binding kinetic parameters including kₐ (association rate constant), kd (dissociation rate constant), and KD (dissociation equilibrium constant) were determined using the BIA evaluation 3.1 computer program (BIAcore, Inc. Piscataway, N.J.).

The target in assay [2] is T2, mouse PCSK9, 8xHis-tagged (mouse, UniProt Q80W65 35-694, limits assumed).
T2 construct: also called mPCSK9-8xHIS; mPCSK9
Nature of the assay: KinExA solution equilibrium. On the technique in general: A kinetic exclusion assay measures how much of one partner remains free in solution.
From the text: (§1) Briefly, Reacti-Gel™ (6×) (Pierce) was pre-coated with one of human, V5-tagged cyno or His-tagged mouse PCSK9 proteins and blocked with BSA. […] Equilibrium dissociation constant (KD) were obtained from nonlinear regression of the two sets of competition curves using a one-site homogeneous binding model. The KinExA® Pro software was employed in the analysis.

The target in assay [3] is T1, cynomolgus monkey PCSK9, V5- and …. The experiment in a line: KinExA solution equilibrium.
From the text: as §1
Assay [4] shares this target. Nature of the assay: BIAcore solution equilibrium assay, free PCSK9 read on immobilized 21B12.

As a reminder, the Kd is the concentration at which binding is half-saturated.

B1: 16F12, anti-PCSK9 huIgG4 (antibody, V domains shown)
VH: QVHLVESGGGVVQPGRSLRLSCAASGFTFNSFGMHWVRQAPGKGLEWVALIWSDGSDEYYADSVKGRFTISRDNSKNTLYLQMNSLRAEDTAVYYCARAIAALYYYYGMDVWGQGTTVTVSS
VL: QSVLTQPPSVSAAPGQKVTISCSGSSSNIGNNFVSWYQQLPGTAPKLLIYDYNKRPSGIPDRFSGSKSGTSATLGITGLQTGDEADYYCGTWDSSLSAYVFGTGTRVTVLQ
notes: also called 16F12 IgG4; 16F12.1
Turning to B1, the Kd in assay [1] stood at 0.87 nM; in assay [3], 0.016 nM. The “fold lower affinity to mouse PCSK9 than to human and cyno PCSK9” value in assay [2] lay within 10 to 250 fold.

B2: 31H4, anti-PCSK9 huIgG4 (antibody, V domains shown)
VH: EVQLVESGGGLVKPGGSLRLSCAASGFTFSSYSMNWVRQAPGKGLEWVSSISSSSSYISYADSVKGRFTISRDNAKNSLYLQMNSLRAEDTAVYFCARDYDFWSAYYDAFDVWGQGTMVTVSS
VL: QSVLTQPPSVSGAPGQRVTISCTGSSSNIGAGYDVHWYQQLPGTAPKLLISGNSNRPSGVPDRFSGSKSGTSASLAITGLQAEDEADYYCQSYDSSLSGSVFGGGTKLTVLQ
Turning to B2, the Kd worked out at 0.19 nM in assay [1] and 0.002 nM in assay [3].

B3: 21B12, anti-PCSK9 huIgG4 (antibody, V domains shown)
VH: QVQLVQSGAEVKKPGASVKVSCKASGYTLTSYGISWVRQAPGQGLEWMGWVSFYNGNTNYAQKLQGRGTMTTDPSTSTAYMELRSLRSDDTAVYYCARGYGMDVWGQGTTVTVSS
VL: QSALTQPASVSGSPGQSITISCTGTSSDVGGYNSVSWYQQHPGKAPKLMIYEVSNRPSGVSNRFSGSKSGNTASLTISGLQAEDEADYYCNSYTSTSMVFGGGTKLTVLQ
notes: also called 21B12 IgG4; 21B12.1
Take B3: the Kd was determined as 0.36 nM in assay [1] and 0.011 nM in assay [4].

These data come from patent publication US20140357851A1 (published 2014).
